We go through 2 molecules from patent US10570431B2, “Compositions comprising a polypeptide having cellulolytic enhancing activity and a heterocyclic compound and uses thereof” (priority 2013, dated 2020).

Read-outs that look alike come from different tables or passages of the source.

Holding throughout (assay type): biochemical
The test system of series [1] is Trichoderma reesei cellulase composition. The following applies: for Percent conversion of milled unwashed PCS: GH61 present (0.2 mg/g cellulose); for Percent conversion of milled unwashed PCS / Enhancement of hydrolysis of milled unwashed PCS by the presence of GH61 polypeptide: no heterocyclic compound.
For series [2] the test system is unchanged.
In series [3] the test system is Penicillium pinophilum GH61A polypeptide. The following applies: AVICEL; ascorbic acid 5 mM; P. pinophilum GH61A 0.4 or 2 mg per gram cellulose; 1, 3 and 7 days.
Series [4] has as its target Aspergillus fumigatus GH61B polypeptide (Aspergillus fumigatus, UniProt Q4WP32). Description: Effect of ascorbic acid on A. fumigatus GH61B polypeptide during hydrolysis of AVICEL. The following applies: ascorbic acid 5 mM, A. fumigatus GH61B 0.4 or 2 mg per gram cellulose, 1, 3 and 7 days.
The test system of series [5] is Talaromyces stipitatus GH61A polypeptide. The following applies: AVICEL; ascorbic acid 5 mM; T. stipitatus GH61A 0.4 or 2 mg per gram cellulose; 1, 3 and 7 days.
In series [6] the target is Trichoderma reesei GH61B polypeptide (Trichoderma reesei, UniProt Q7Z9M7). Description: Effect of ascorbic acid on T. reesei GH61B polypeptide during hydrolysis of AVICEL. The following applies: ascorbic acid 5 mM.
Chain of Trichoderma reesei GH61B polypeptide (Q7Z9M7 20-249): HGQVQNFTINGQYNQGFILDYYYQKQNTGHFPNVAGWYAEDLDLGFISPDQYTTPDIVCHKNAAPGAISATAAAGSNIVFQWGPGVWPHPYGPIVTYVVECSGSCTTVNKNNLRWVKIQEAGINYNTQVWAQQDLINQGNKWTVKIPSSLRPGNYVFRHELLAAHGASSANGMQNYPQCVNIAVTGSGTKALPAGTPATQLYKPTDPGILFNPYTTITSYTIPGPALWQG
The subject of series [7] is Thielavia terrestris GH61E polypeptide. Description: Effect of ascorbic acid on T. terrestris GH61E polypeptide during hydrolysis of AVICEL. The following applies: ascorbic acid 5 mM, T. terrestris GH61E 0.4 or 2 mg per gram cellulose, 1, 3 and 7 days.
For series [8], the system named is Trichoderma reesei cellulase composition. Description: Hydrolysis of AVICEL (microcrystalline cellulose) by the T. reesei cellulase composition, with/without GH61 polypeptide or heterocyclic compound. The following applies: GH61 polypeptide present (0.4 mg per g cellulose), no heterocyclic compound.

Chain of Aspergillus fumigatus GH61B polypeptide (Q4WP32 22-250): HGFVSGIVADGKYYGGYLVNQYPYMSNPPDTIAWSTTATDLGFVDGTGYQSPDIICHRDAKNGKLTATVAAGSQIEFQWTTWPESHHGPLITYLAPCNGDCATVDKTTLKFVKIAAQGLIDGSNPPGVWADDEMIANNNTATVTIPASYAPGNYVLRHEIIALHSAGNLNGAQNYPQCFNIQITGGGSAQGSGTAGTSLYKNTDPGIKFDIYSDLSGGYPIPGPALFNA

Regarding `O=C1OC(C(O)CO)C(O)=C1O` (stereo not drawn) [ascorbic acid, (1,2-dihydroxyethyl)-3,4-dihydroxyfuran-2(5H)-one], the “heterocyclic compound effect(no GH61)” value in series [1] (milled unwashed PCS, compound 5 mM, cellulase 2 mg per g cellulose, no GH61, 1, 3 and 7 days) is “greater than 1”; in series [2] (milled washed PCS, compound 5 mM, no GH61, 1, 3 and 7 days) it was “slightly decreased”. In addition, the “GH61 effect in the presence of heterocyclic compound” value in series [3], in series [4], in series [5], in series [6] (T. reesei GH61B at high level (2 mg per g cellulose)) and in series [7] was “greater than 1” each time. Further, the “heterocyclic compound effect(+GH61)” value in series [3], in series [4], in series [5], in series [6] (T. reesei GH61B 2 mg per g cellulose) and in series [7] was “increased” in each case.

B1: T. aurantiacus GH61A polypeptide: GH61A polypeptide having cellulolytic enhancing activity (SEQ ID NO: 14), recombinantly prepared using Aspergillus oryzae JaL250 as a host (protein, listed as Thermoascus aurantiacus)
chain: MSFSKIIATAGVLASASLVAGHGFVQNIVIDGKYYGGYLVNQYPYMSNPPEVIAWSTTATDLGFVDGTGYQTPDIICHRGAKPGALTAPVSPGGTVELQWTPWPDSHHGPVINYLAPCNGDCSTVDKTQLEFFKIAESGLINDDNPPGIWASDNLIAANNSWTVTIPTTIAPGNYVLRHEIIALHSAQNQDGAQNYPQCINLQVTGGGSDNPAGTLGTALYHDTDPGILINIYQKLSSYIIPGPPLYTG
Regarding B1, the “Percent conversion of AVICEL” value in series [8] (1 day, 16±1% in the absence of GH61) is reported as 16±1%; in series [8] (3 days, 31±4% in the absence of GH61), 30±4%; in series [8] (7 days, 45±3% in the absence of GH61) it was 45±4%. Also, the “Percent conversion of milled unwashed PCS” value turned out to be 22.2±0.1% in series [1] (1 day, cellulase 2 mg per g cellulose, 18.7±0.1% in the absence of GH61); 34.3±0.3% in series [1] (3 days, cellulase 2 mg per g cellulose, 28.2±0.3% in the absence of GH61); 44.0±0.2% in series [1] (7 days, cellulase 2 mg per g cellulose, 36.9±0.3% in the absence of GH61). Moreover, the “Enhancement of hydrolysis of milled unwashed PCS by the presence of GH61 polypeptide” value in series [1] (1 day) is given as 19%; in series [1] (3 days) it was 21%; in series [1] (7 days) it was 19%. The “Enhancement of hydrolysis of milled washed PCS by the presence of GH61 polypeptide” value in series [2] (1 day, no heterocyclic compound) was determined as 14%; in series [2] (3 days, no heterocyclic compound), 31%; in series [2] (7 days, no heterocyclic compound) it was 31%. The “Percent conversion of milled washed PCS” value is given as 42±1% in series [2] (day 1, GH61 present (0.4 mg per g cellulose), cellulase 4 mg per g cellulose, no heterocyclic compound, 37±1% in the absence of GH61); 27±0.8% in series [2] (day 1, cellulase 2 mg per g cellulose, GH61 at 10% (w/w) of the cellulase composition, 24±0.7% in the absence of GH61); 27±0.8% in series [2] (day 1, cellulase 2 mg per g cellulose, GH61 at 25% (w/w) of the cellulase composition, 24±0.7% in the absence of GH61); 27±0.8% in series [2] (day 1, cellulase 2 mg per g cellulose, GH61 at 50% (w/w) of the cellulase composition, 24±0.7% in the absence of GH61); 72±1% in series [2] (day 3, GH61 present (0.4 mg per g cellulose), cellulase 4 mg per g cellulose, no heterocyclic compound, 55±1% in the absence of GH61); 55±3% in series [2] (day 3, cellulase 2 mg per g cellulose, GH61 at 10% (w/w) of the cellulase composition, 41±2% in the absence of GH61). The “Percent conversion of milled washed PCS” value in series [2] (day 3, cellulase 2 mg per g cellulose, GH61 at 25% (w/w) of the cellulase composition, 41±2% in the absence of GH61) was determined as 57±0.5%; in series [2] (day 3, cellulase 2 mg per g cellulose, GH61 at 50% (w/w) of the cellulase composition, 41±2% in the absence of GH61) it was 59±2%; in series [2] (day 7, GH61 present (0.4 mg per g cellulose), cellulase 4 mg per g cellulose, no heterocyclic compound, 67±0.2% in the absence of GH61), 88±2%.
